Experimental findings from US20190183138 are described below.

For data set [1], the target named is T1, bovine β-casein (UniProt P02666).
T1 sequence: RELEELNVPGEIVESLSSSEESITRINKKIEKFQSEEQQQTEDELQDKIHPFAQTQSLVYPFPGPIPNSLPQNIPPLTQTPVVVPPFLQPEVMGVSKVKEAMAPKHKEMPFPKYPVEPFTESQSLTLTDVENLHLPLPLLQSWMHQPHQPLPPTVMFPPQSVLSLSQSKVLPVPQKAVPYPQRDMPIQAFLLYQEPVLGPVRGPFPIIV

The test system of data set [2] is bovine α-casein.
The target in data set [3] is bovine κ-casein (UniProt P02668).
Chain of bovine κ-casein (P02668 22-190): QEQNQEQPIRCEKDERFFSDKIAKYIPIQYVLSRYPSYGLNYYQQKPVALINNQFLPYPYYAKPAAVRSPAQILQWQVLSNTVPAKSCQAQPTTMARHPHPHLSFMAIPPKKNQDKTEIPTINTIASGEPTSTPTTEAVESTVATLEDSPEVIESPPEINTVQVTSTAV

For “Cynanchum otophyllum Schneid. protease QA (identified as asclepain of Asclepias Linn.)”, in data set [1], the “hydrolysis of isolated casein as a function of time (SDS-PAGE)” value (“hydrolysis of isolated casein” for short) is “β-Casein and κ-casein were completely hydrolyzed after 4 h of incubation”. Moreover, the “hydrolysis of isolated casein” value in data set [2] is listed as “α-casein was only partially hydrolyzed”. In data set [3], the Km worked out at 0.397 ± 0.002 mg/mL, the “hydrolysis of isolated casein” value is recorded as “hydrolysis by QA required almost 4 h”, the kcat (min) was 1.66 s⁻¹ and the kcat./Km [mL/(mg · min)] (mL/(mg · min)) was found to be 251 ± 6.11.

Regarding “Cynanchum otophyllum Schneid. protease QC (identified as cysteine protease B of Calotropis R. Br.)”, in data set [1], the “hydrolysis of isolated casein” value was “The QC also exhibited a higher rate of hydrolysis than QA for β-casein and κ-casein”. In addition, the “hydrolysis of isolated casein” value in data set [2] is given as “α-casein was only partially hydrolyzed”. For the same substance, in data set [3], the Km is 1.708 ± 0.014 mg/mL, the “hydrolysis of isolated casein” value is “Most of the κ-casein was hydrolyzed by QC after 30 min of incubation”, the kcat (min) worked out at 1.39 s⁻¹ and the kcat./Km [mL/(mg · min)] (mL/(mg · min)) was 49 ± 1.93.
